Reference: US20170342160A1 (CHIOME BIOSCIENCE, published 2017)

Legend:
[1] = target: T1, human CD3 (CD3 receptor complex on T cells) on Jurkat cells and on human PBMC (human, UniProt P07766 23-207); experiment: row 'CD3 binding (KD)'; cellular ELISA on Jurkat T-cells (panel B)
T1 construct: whole, on cells; The other chains of the complex are not specified; also called human CD3 domain; CD3 epsilon
Description: For Affinity to the human CD3 domain, a cell based ELISA with a T-cell lymphoma (CD3+) cell line, Jurkat, was used. Jurkat cells are collected, washed and aliquoted into each well of a round-bottom 96 well microplate. Tribody/sample dilutions were prepared in PBS, added to the cells and incubated. Following wash steps, detection antibody is added to the samples (anti-human Kappa light chain AP; e.g. Sigma, Cat. No. K4377). Bound detection antibody is measured by development of a colorimetric reaction upon addition of p-NPP (Cat-No: N7653, Sigma) and the absorbance quantified on a micro-well plate reader and processed by non-linear regression using graph Pad Prism software.

[2] = target: T2, recombinant extracellular domain of human 5T4 (soluble, produced in house) (human, UniProt Q13641 32-355); experiment: ELISA on 5T4 protein (extracellular domain)
T2 construct: extracellular domain; The signal peptide lies within residues 1-355 and is not part of the secreted protein; also called 5T4-ECD; 5T4 recombinant protein
T2 sequence: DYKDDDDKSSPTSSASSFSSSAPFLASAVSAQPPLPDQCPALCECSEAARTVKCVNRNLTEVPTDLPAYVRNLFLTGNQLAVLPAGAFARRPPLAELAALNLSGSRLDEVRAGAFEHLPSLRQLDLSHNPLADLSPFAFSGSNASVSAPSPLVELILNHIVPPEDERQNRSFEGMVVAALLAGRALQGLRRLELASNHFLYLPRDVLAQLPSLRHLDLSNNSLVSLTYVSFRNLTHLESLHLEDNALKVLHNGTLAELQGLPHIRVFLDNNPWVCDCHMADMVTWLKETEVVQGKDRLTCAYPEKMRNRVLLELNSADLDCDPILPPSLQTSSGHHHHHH
Description: (§1) For Affinity to 5T4 target antigen an ELISA with the 5T4 antigen is used. Target antigen, 5T4 extra cellular domain, produced in house is coated to polystyrene flat bottom 96 well microplate and blocked. Tribody/sample dilutions were prepared in TBS with 0.2% w/v powdered milk, added to the plate and incubated. Following wash steps, detection antibody is added to the samples (anti-human Kappa light chain AP; e.g. Sigma, Cat. No. K4377). Bound detection antibody is measured by development of a colorimetric reaction upon addition of p-NPP (Cat-No: N7653, Sigma) and the absorbance quantified on a micro-well plate reader and processed by non-linear regression using graph Pad Prism software.

[3] = target: T2, recombinant extracellular domain of …; experiment: ELISA on coated 5T4-ECD
Description: as §1

[4] = target: T2, recombinant extracellular domain of …; experiment: row '5T4-binding (KD)'; ELISA on 5T4 extracellular domain (panel A)
Description: as §1

[5] = target: T3, human 5T4 on 5T4-positive tumour cells (MSTO-211H mesothelioma cell line and other tumour cell lines) (human, UniProt Q13641 32-420); experiment: cell-based or functional assay
T3 sequence (looked up): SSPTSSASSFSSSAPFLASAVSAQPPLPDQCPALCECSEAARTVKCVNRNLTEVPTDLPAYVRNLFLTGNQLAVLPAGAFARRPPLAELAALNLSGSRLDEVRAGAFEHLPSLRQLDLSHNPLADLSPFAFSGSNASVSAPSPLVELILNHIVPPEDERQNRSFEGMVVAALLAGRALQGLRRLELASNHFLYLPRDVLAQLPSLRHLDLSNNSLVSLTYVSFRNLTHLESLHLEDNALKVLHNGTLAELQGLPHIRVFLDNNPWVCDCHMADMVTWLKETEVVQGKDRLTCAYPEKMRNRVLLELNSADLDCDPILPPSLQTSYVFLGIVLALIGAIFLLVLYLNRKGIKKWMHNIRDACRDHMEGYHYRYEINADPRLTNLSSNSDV

[6] = target: T1, human CD3 (CD3 receptor complex on T …); experiment: flow cytometry titration on peripheral blood cells of 3 different donors; peripheral blood cells of 3 different donors; cell-binding titration, KD = 50% binding concentration
[7] = target: T2, recombinant extracellular domain of …; experiment: ELISA on recombinant 5T4 extracellular domain
Description: as §1

[8] = target: T3, human 5T4 on 5T4-positive tumour cells …; experiment: FACS titration on MSTO-211H cells (row 'FACS' of the inset table 'Method / KD Tb535H (nM)')
Description: (§2) To access the binding of anti-5T4 molecules (scFv, Fab and Tribody format) to the human 5T4 domain, the biphasic mesothelioma cell line MSTO-211H (ATCC CRL-2081) was tested by FACS binding assay with direct labelled molecules with Allophycocyanin (APC) by the Lightning-Link® APC kit from Innova Biosciences, following the manufacturer instructions.
(§3) Cells are then washed twice with PBS and binding to cell surface is accessed by flow cytometry using a BD FACsalibur apparatus.

[9] = target: T3, human 5T4 on 5T4-positive tumour cells …; experiment: FACS titration on MSTO-211H cells
Description: as §2, §3

[10] = target: T1, human CD3 (CD3 receptor complex on T …); experiment: cell binding titration (Abs 405nm) on human PBMC, donor PBMC#2053
[11] = target: T1, human CD3 (CD3 receptor complex on T …); experiment: cell binding titration (Abs 405nm) on human PBMC, donor PBMC#5886
[12] = target: T1, human CD3 (CD3 receptor complex on T …); experiment: cell binding titration (Abs 405nm) on human PBMC, donor printed as PBMC49966

T1 sequence (P07766 23-207, one chain of several): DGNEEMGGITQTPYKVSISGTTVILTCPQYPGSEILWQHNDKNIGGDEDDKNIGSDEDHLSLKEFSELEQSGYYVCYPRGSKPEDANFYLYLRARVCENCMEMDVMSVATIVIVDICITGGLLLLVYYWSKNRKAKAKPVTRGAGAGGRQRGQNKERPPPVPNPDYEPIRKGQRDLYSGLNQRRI

B1: Tb535C, chimeric 5T4xCD3 Tribody fusion protein based on murine 5T4 binders (bispecific antibody)
chain 1: EVQLQQSGPDLVKPGASVKISCKASGYSFTGYYMHWVKQSPGKGLEWIGRINPNNGVTLYNQKFKDKATLTVDKSSTTAYMELRSLTSEDSAVYYCARSTMITNYVMDYWGQGTSVTVSSASTKGPSVFPLAPSSKSTSGGTAALGCLVKDYFPEPVTVSWNSGALTSGVHTFPAVLQSSGLYSLSSVVTVPSSSLGTQTYICNVNHKPSNTKVDKKVEPKSCDKTHTGPGGGSPGQVQLVQSGAELKKPGASVKVSCKASGYTFTRYTMHWVRQAPGQCLEWMGYINPSRGYTNYNQKFKDKATLTADKSTSTAYMELRSLRSDDTAVYYCARYYDDHYSLDYWGQGTLVTVSSASGGGGSGGGGSGGGGSAGDIQLTQSPSILSASVGDRVTITCRASSSVSYMNWYQQKPGKAPKRWIYDTSKVASGVPYRFSGSGSGTEYTLTISSMQPEDFATYYCQQWSSNPLTFGCGTKVEIK
chain 2: SIVMTQTPTSLLVSAGDRVTITCKASQSVSNDVAWYQQKPGQSPKLLISYTSSRYAGVPDRFSGSGYGTDFTLTISSVQAEDAAVYFCQQDYNSPPTFGGGTKLEIKRTVAAPSVFIFPPSDEQLKSGTASVVCLLNNFYPREAKVQWKVDNALQSGNSQESVTEQDSKDSTYSLSSTLTLSKADYEKHKVYACEVTHQGLSSPVTKSFNRGECGPGGGSPGEVQLVQSGPDDVKPGGSVKISCKASGYSFTGYYMHWVKQSPGKCLEWIGRINPNNGVTLYNQKFKDKATLTVDKSSTTAYMELRSLTSEDSAVYYCARSTMITNYVMDYWGQGTLVTVSSASGGGGSGGGGSGGGGSAGDIVMTQTPTSLLVSAGDRVTITCKASQSVSNDVAWYQQKPGQSPKLLISYTSSRYAGVPDRFSGSGYGTDFTLTISSVQAEDAAVYFCQQDYNSPPTFGCGTKLEIKSG
notes: Heterodimer through CH1:CL; also called Tribody based on the murine variable domains
Kd [1]: 30 nM
EC50 (read off the curve) [2]: ~0.7 nM
Kd [3]: 1 nM
Kd [4]: 0.8 nM
EC50 of cytotoxicity (MSTO-211H target cells with human PBMC) [5]: 0.01 nM

B2: Tb535H, humanized 5T4xCD3 Tribody fusion protein (Fab(5T4) with C-terminal dsFv(CD3) and dsFv(5T4)) (bispecific antibody)
chain 1: QVQLVQSGAEVKKPGASVKVSCKASGYSFTSYYMHWVKQSPGQGLEWIGRINPNNGVTLYNQKFKDRVTMTRDTSISTAYMELSRLRSDDTAVYYCARSTMITNYVMDYWGQGTLVTVSSASTKGPSVFPLAPSSKSTSGGTAALGCLVKDYFPEPVTVSWNSGALTSGVHTFPAVLQSSGLYSLSSVVTVPSSSLGTQTYICNVNHKPSNTKVDKKVEPKSCDKTHTGPGGGSPGQVQLVQSGAELKKPGASVKVSCKASGYTFTRYTMHWVRQAPGQCLEWMGYINPSRGYTNYNQKFKDKATLTADKSTSTAYMELRSLRSDDTAVYYCARYYDDHYSLDYWGQGTLVTVSSASGGGGSGGGGSGGGGSAGDIQLTQSPSILSASVGDRVTITCRASSSVSYMNWYQQKPGKAPKRWIYDTSKVASGVPYRFSGSGSGTEYTLTISSMQPEDFATYYCQQWSSNPLTFGCGTKVEIKSG
chain 2: not shown
notes: also called Tb535H-1120; Tb-5T4
Kd [6]: ~25 nM
Kd [1]: 23 nM
EC50 (read off the curve) [7]: ~1 nM
EC50 (read off the curve) [2]: ~1 nM
Kd [3]: 0.9 nM
Kd [8]: 4.6 nM
EC50 (read off the curve) [9]: ~5 nM
Kd [10]: 26 nM
Kd [11]: 24 nM
Kd [12]: 26 nM
Kd [4]: 1.1 nM
EC50 of cytotoxicity (MSTO-211H target cells with human PBMC) [5]: 0.007 nM

B3: dsFv(5T4), humanized VH(5T4) SEQ ID 6 and VL(5T4) SEQ ID 19 in dsFv format (scFv)
scFv: QVQLVQSGAEVKKPGASVKVSCKASGYSFTSYYMHWVKQSPGQCLEWIGRINPNNGVTLYNQKFKDRVTMTRDTSISTAYMELSRLRSDDTAVYYCARSTMITNYVMDYWGQGTLVTVSSASGGGGSGGGGSGGGGSAGDIVMTQSPDSLAVSLGERATINCKASQSVSNDVAWYQQKPGQPPKLLIYYTSSRYAGVPDRFSGSGSGTDFTLTISSLQAEDVAVYYCQQDYNSPPTFGCGTKLEIK
notes: also called dsFvhu5T4; scFv
EC50 (read off the curve) [7]: ~1 nM
Kd [3]: 2.3 nM

B4: Fab(5T4), humanized VH(5T4) SEQ ID 6 and VL(5T4) SEQ ID 19 in Fab format (Fab, V domains shown)
VH: QVQLVQSGAEVKKPGASVKVSCKASGYSFTSYYMHWVKQSPGQGLEWIGRINPNNGVTLYNQKFKDRVTMTRDTSISTAYMELSRLRSDDTAVYYCARSTMITNYVMDYWGQGTLVTVSS
VL: DIVMTQSPDSLAVSLGERATINCKASQSVSNDVAWYQQKPGQPPKLLIYYTSSRYAGVPDRFSGSGSGTDFTLTISSLQAEDVAVYYCQQDYNSPPTFGGGTKLEIK
notes: Fab format
EC50 (read off the curve) [7]: ~2 nM
Kd [3]: 2.9 nM

B5: BiTE format, scFv(5T4)-scFv(CD3) fusion with humanized VH(5T4) SEQ ID 6 and VL(5T4) SEQ ID 19 (bispecific antibody, V domains shown)
VH: B4 VH
VL: B4 VL
notes: The molecule is a single polypeptide, scFv(5T4)-scFv(CD3); also called scFv-scFv format
Kd [3]: 2 nM

B6: IgG(5T4), humanized VH(5T4) SEQ ID 6 and VL(5T4) SEQ ID 19 in IgG format (antibody, V domains shown)
VH: B4 VH
VL: B4 VL
notes: also called IgG1(5T4)
Kd [3]: 0.7 nM
